In patent US20170165339A1 (IMMATICS BIOTECHNOLOGIES, published 2017):

B1: ALMAMLVYV (SEQ ID NO: 13) (peptide)
peptide: ALMAMLVYV
B2: FVDPNTQEKV (SEQ ID NO: 22) (peptide)
peptide: FVDPNTQEKV
B3: AMIEEVFEA (SEQ ID NO: 30) (peptide)
peptide: AMIEEVFEA
B4: TVVTRLDEI (SEQ ID NO: 78) (peptide)
peptide: TVVTRLDEI
B5: YLLDPSITL (SEQ ID NO: 29) (peptide)
peptide: YLLDPSITL
B6: SLFSDEFKV (SEQ ID NO: 23) (peptide)
peptide: SLFSDEFKV
B7: SVVPDVRSV (SEQ ID NO: 65) (peptide)
peptide: SVVPDVRSV
B8: FLTAINYLL (SEQ ID NO: 72) (peptide)
peptide: FLTAINYLL
B9: ALSPSYLTV (SEQ ID NO: 11) (peptide)
peptide: ALSPSYLTV
B10: TLFGYSVVL (SEQ ID NO: 74) (peptide)
peptide: TLFGYSVVL
B11: YLLPLLPAL (SEQ ID NO: 58) (peptide)
peptide: YLLPLLPAL
B12: ILFHGVFYA (SEQ ID NO: 50) (peptide)
peptide: ILFHGVFYA
B13: HLLEGSVGV (SEQ ID NO: 39) (peptide)
peptide: HLLEGSVGV
B14: KLMPGTYTL (SEQ ID NO: 4) (peptide)
peptide: KLMPGTYTL
B15: YTLREVDTV (SEQ ID NO: 73) (peptide)
peptide: YTLREVDTV
B16: VQLDSIEDLEV (SEQ ID NO: 32) (peptide)
peptide: VQLDSIEDLEV
B17: GIAGSLKTV (SEQ ID NO: 10) (peptide)
peptide: GIAGSLKTV
B18: ILDHEVPSL (SEQ ID NO: 7) (peptide)
peptide: ILDHEVPSL
B19: TVFTDHMLTV (SEQ ID NO: 57) (peptide)
peptide: TVFTDHMLTV
B20: QVIEDSTGV (SEQ ID NO: 48) (peptide)
peptide: QVIEDSTGV
B21: KLLDPQEFTL (SEQ ID NO: 59) (peptide)
peptide: KLLDPQEFTL
B22: TLIDEQDIPLV (SEQ ID NO: 77) (peptide)
peptide: TLIDEQDIPLV
B23: SLSNRLYYL (SEQ ID NO: 68) (peptide)
peptide: SLSNRLYYL
B24: ILAKDLFEI (SEQ ID NO: 14) (peptide)
peptide: ILAKDLFEI
B25: ILLDLTDNRL (SEQ ID NO: 18) (peptide)
peptide: ILLDLTDNRL
B26: SLFETAWEA (SEQ ID NO: 44) (peptide)
peptide: SLFETAWEA
B27: KLYEADFVL (SEQ ID NO: 80) (peptide)
peptide: KLYEADFVL
B28: SQFPLPLAV (SEQ ID NO: 46) (peptide)
peptide: SQFPLPLAV
B29: YIKTELISV (SEQ ID NO: 33) (peptide)
peptide: YIKTELISV
B30: AIVKEIVNI (SEQ ID NO: 61) (peptide)
peptide: AIVKEIVNI
B31: KLIFSVEAV (SEQ ID NO: 66) (peptide)
peptide: KLIFSVEAV
B32: FLLATEVVTV (SEQ ID NO: 34) (peptide)
peptide: FLLATEVVTV
B33: FLVDGSYSI (SEQ ID NO: 9) (peptide)
peptide: FLVDGSYSI
B34: AVIKFLELL (SEQ ID NO: 75) (peptide)
peptide: AVIKFLELL
B35: GLLPLLHRA (SEQ ID NO: 12) (peptide)
peptide: GLLPLLHRA
B36: LLFSRLCGA (SEQ ID NO: 51) (peptide)
peptide: LLFSRLCGA
B37: SLPNGKPVSV (SEQ ID NO: 28) (peptide)
peptide: SLPNGKPVSV
B38: TLLQRLTEV (SEQ ID NO: 67) (peptide)
peptide: TLLQRLTEV
B39: LLLGDSALYL (SEQ ID NO: 70) (peptide)
peptide: LLLGDSALYL
B40: SQIPAQPSV (SEQ ID NO: 63) (peptide)
peptide: SQIPAQPSV
B41: RLMEENWNA (SEQ ID NO: 27) (peptide)
peptide: RLMEENWNA
B42: TLDEKVAEL (SEQ ID NO: 24) (peptide)
peptide: TLDEKVAEL
B43: FLGPRIIGL (SEQ ID NO: 38) (peptide)
peptide: FLGPRIIGL
B44: SISDNVWEV (SEQ ID NO: 19) (peptide)
peptide: SISDNVWEV
B45: VLNPLITAV (SEQ ID NO: 54) (peptide)
peptide: VLNPLITAV
B46: FLAVGLVDV (SEQ ID NO: 69) (peptide)
peptide: FLAVGLVDV
B47: AIQDEIRSV (SEQ ID NO: 21) (peptide)
peptide: AIQDEIRSV
B48: YLDLSHNQL (SEQ ID NO: 15) (peptide)
peptide: YLDLSHNQL
B49: GIVAHIQEV (SEQ ID NO: 5) (peptide)
peptide: GIVAHIQEV
B50: ALFENTPKA (SEQ ID NO: 41) (peptide)
peptide: ALFENTPKA
B51: KMVGLVVAI (SEQ ID NO: 53) (peptide)
peptide: KMVGLVVAI
B52: YTLDIPVLFGV (SEQ ID NO: 16) (peptide)
peptide: YTLDIPVLFGV
B53: VTFKEYVTV (SEQ ID NO: 79) (peptide)
peptide: VTFKEYVTV
B54: LLYPEPWSV (SEQ ID NO: 1) (peptide)
peptide: LLYPEPWSV
B55: ALFAPLVHL (SEQ ID NO: 60) (peptide)
peptide: ALFAPLVHL
B56: ALNPELVQA (SEQ ID NO: 62) (peptide)
peptide: ALNPELVQA
B57: ALNIATHVL (SEQ ID NO: 49) (peptide)
peptide: ALNIATHVL
B58: SLATKIVEA (SEQ ID NO: 55) (peptide)
peptide: SLATKIVEA
B59: TMDSVLVTV (SEQ ID NO: 25) (peptide)
peptide: TMDSVLVTV
B60: LLDSVSRL (SEQ ID NO: 42) (peptide)
peptide: LLDSVSRL
B61: NALDKVLSV (SEQ ID NO: 81) (peptide)
peptide: NALDKVLSV
B62: ALLERGELFV (SEQ ID NO: 47) (peptide)
peptide: ALLERGELFV
B63: FLLPFSTVYL (SEQ ID NO: 35) (peptide)
peptide: FLLPFSTVYL
B64: SLADTNSLAVV (SEQ ID NO: 36) (peptide)
peptide: SLADTNSLAVV
B65: KLEENGDLYL (SEQ ID NO: 3) (peptide)
peptide: KLEENGDLYL
B66: AVGPVHNSV (SEQ ID NO: 76) (peptide)
peptide: AVGPVHNSV
B67: VLHSKFWVV (SEQ ID NO: 71) (peptide)
peptide: VLHSKFWVV
B68: VLIDPQWVLTA (SEQ ID NO: 40) (peptide)
peptide: VLIDPQWVLTA
B69: ALFDSLRHV (SEQ ID NO: 6) (peptide)
peptide: ALFDSLRHV
B70: ALQEELTEL (SEQ ID NO: 26) (peptide)
peptide: ALQEELTEL
B71: SLFPDSLIV (SEQ ID NO: 64) (peptide)
peptide: SLFPDSLIV
B72: TITETTVEV (SEQ ID NO: 31) (peptide)
peptide: TITETTVEV
B73: ILAPFSVDL (SEQ ID NO: 37) (peptide)
peptide: ILAPFSVDL
B74: FLHDEKEGIYI (SEQ ID NO: 56) (peptide)
peptide: FLHDEKEGIYI
B75: GLSQITNQL (SEQ ID NO: 20) (peptide)
peptide: GLSQITNQL

Target: HLA-A*02 (human)
Experiment: UV peptide-exchange ELISA, yield grade

Binder | peptide exchange yield [%]
B1 | 20 to 49
B2 | 20 to 49
B3 | 20 to 49
B4 | 20 to 49
B5 | 50 to 75
B6 | 50 to 75
B7 | 20 to 49
B8 | 50 to 75
B9 | 50 to 75
B10 | 50 to 75
B11 | 50 to 75
B12 | 50 to 75
B13 | 50 to 75
B14 | ≥ 75
B15 | 20 to 49
B16 | 50 to 75
B17 | 50 to 75
B18 | 50 to 75
B19 | 20 to 49
B20 | 20 to 49
B21 | 50 to 75
B22 | 50 to 75
B23 | 50 to 75
B24 | ≥ 75
B25 | 50 to 75

Binder | peptide exchange yield [%]
B26 | 50 to 75
B27 | 20 to 49
B28 | 20 to 49
B29 | 50 to 75
B30 | 20 to 49
B31 | 50 to 75
B32 | ≥ 75
B33 | 50 to 75
B34 | 50 to 75
B35 | ≥ 75
B36 | ≥ 75
B37 | 50 to 75
B38 | 50 to 75
B39 | 50 to 75
B40 | 20 to 49
B41 | 50 to 75
B42 | 50 to 75
B43 | 50 to 75
B44 | 50 to 75
B45 | 50 to 75
B46 | 50 to 75
B47 | 50 to 75
B48 | 50 to 75
B49 | 50 to 75
B50 | 20 to 49

Binder | peptide exchange yield [%]
B51 | 50 to 75
B52 | ≥ 75
B53 | 20 to 49
B54 | ≥ 75
B55 | 50 to 75
B56 | 20 to 49
B57 | 50 to 75
B58 | 50 to 75
B59 | 50 to 75
B60 | < 20
B61 | 50 to 75
B62 | 50 to 75
B63 | 50 to 75
B64 | 50 to 75
B65 | ≥ 75
B66 | 20 to 49
B67 | 50 to 75
B68 | 50 to 75
B69 | 50 to 75
B70 | 50 to 75
B71 | 20 to 49
B72 | 50 to 75
B73 | 50 to 75
B74 | 50 to 75
B75 | 50 to 75
